The source of these data is PMC7655094.

“And” between values parts separate entries of the source, which are not always exact repeats. Identical values can stand only once.

The test has as its target CD16 expressed by Jurkat-CD16 cells (UniProt P08637). Kind of test: flow cytometry on cells. On the technique in general: In flow cytometry, cells or beads pass a laser one at a time.
Chain of UniProt P08637 (P08637 17-254): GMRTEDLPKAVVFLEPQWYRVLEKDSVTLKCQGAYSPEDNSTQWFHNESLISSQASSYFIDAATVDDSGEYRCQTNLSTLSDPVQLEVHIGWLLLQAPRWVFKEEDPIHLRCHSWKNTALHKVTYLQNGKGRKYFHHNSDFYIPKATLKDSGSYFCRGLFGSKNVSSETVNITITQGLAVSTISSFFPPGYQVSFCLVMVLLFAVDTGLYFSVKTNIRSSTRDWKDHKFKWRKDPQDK

In the case of “goat-produced cetuximab (gCetuximab) (antibody)”, the MFI of bound competitor anti-CD16-PE/3G8 is 25.1 and 28.1 and 21.8.
